Series [1] addresses T1, rLvc-Jun (Litopenaeus vannamei, UniProt A0A0A7W5M9 1-293).
T1 chain: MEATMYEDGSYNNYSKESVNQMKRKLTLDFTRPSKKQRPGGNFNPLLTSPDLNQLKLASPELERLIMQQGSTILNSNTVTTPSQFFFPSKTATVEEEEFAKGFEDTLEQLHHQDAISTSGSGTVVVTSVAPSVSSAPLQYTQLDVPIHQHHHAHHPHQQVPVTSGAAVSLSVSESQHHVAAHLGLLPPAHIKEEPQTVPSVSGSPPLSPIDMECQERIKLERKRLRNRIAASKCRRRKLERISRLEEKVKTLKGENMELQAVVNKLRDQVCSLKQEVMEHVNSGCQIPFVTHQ
Kind of series: EMSA; EMSA with biotin-labeled probes; buffer, salt, pH and temperature not in the material. The following applies: protein: recombinant, tags: GST tag removed with enterokinase, chain copies: 0, blunt.

Series [2] concerns the target T1, rLvc-Jun. The series is described as follows: competition; 10-, 50-, 100-fold excess over biotin IE1-AP-1-1; EMSA with biotin-labeled probes; buffer, salt, pH and temperature not in the material. The conditions noted are these: protein: recombinant; tags: GST tag removed with enterokinase; chain copies: 0; label: none; blunt.

B1: 249-AP-1 probe (dsDNA)
DNA 1: TAGGAATTTCGCTGACGTCAATAAACTGGTTT
DNA 2: AAACCAGTTTATTGACGTCAGCGAAATTCCTA
With B1, the binding result with rLvc-Jun [1] (label: biotin) is given as “binds”.

B2: IE1-AP-1-2 probe (dsDNA)
DNA 1: GGAATTTCCTTGTTACTCATTTATTCCTAGA
DNA 2: TCTAGGAATAAATGAGTAACAAGGAAATTCC
As to B2, the binding result with rLvc-Jun [1] (label: biotin (probe)) is reported as “binds”.

B3: Mut-unBio-IE1-AP-1-1 (dsDNA)
DNA 1: GAAAATCGCTGTTCCCATCCTGTTAAGGAATT
DNA 2: AATTCCTTAACAGGATGGGAACAGCGATTTTC
Take B3: the binding result in the series with rLvc-Jun [2] was “no binding”.

B4: 056-AP-1 probe (dsDNA)
DNA 1: GTACCAGATGTGAGTCAAACCGTTTCTGG
DNA 2: CCAGAAACGGTTTGACTCACATCTGGTAC
With B4, the binding result with rLvc-Jun [1] (label: biotin) is on record as “binds”.

B5: 403-AP-1 probe (dsDNA)
DNA 1: ATTTCCAAGAATTTTGCTGACGTCAATGGACC
DNA 2: GGTCCATTGACGTCAGCAAAATTCTTGGAAAT
On to B5, for which the binding result with rLvc-Jun [1] (label: biotin) is listed as “binds”.

B6: IE1-AP-1-1 probe (dsDNA)
DNA 1: GAAAATGGCTGTTTGAATCATGTTAAGGAATT
DNA 2: AATTCCTTAACATGATTCAAACAGCCATTTTC
Regarding B6, in the series with rLvc-Jun [1] (label: biotin (probe)), the binding result was “binds”.
